From publication PMC3320604, “A Genome-Wide Screen for Genetic Variants That Modify the Recruitment of REST to Its Target Genes”
Changes are numbered by the printed parent chain.

B1: Ideal RE1 (Chrm4) (dsDNA)
DNA 1: TCAGCCTCTCTTCAGCACCTCGGACAGCTCCGGACCTCTC
DNA 2: GAGAGGTCCGGAGCTGTCCGAGGTGCTGAAGAGAGGCTGA
B2: Mutated RE1 (Mut) (dsDNA)
DNA 1: B1 DNA 1 with C18G, C19G, G22C, G23C
DNA 2: B1 DNA 2 with C18G, C19G, G22C, G23C

How the values were obtained:
[1] = target: T1, HisMBP-REST/DBD (UniProt Q13127 159-412); experiment: competition EMSA; 10 mM Tris-HCl pH 8.0, 100 mM KCl, 50 uM ZnCl2 (printed '50 M ZnCl', symbols lost), 2 mM 2-mercaptoethanol, 10% glycerol, 0.1% NP-40, 0.1 mg/ml BSA; 0.5 nM probe, 150 nM competitor, 40 nM protein, 1 h; temperature lost in text; settings: protein: recombinant; tags: His-MBP
T1 sequence: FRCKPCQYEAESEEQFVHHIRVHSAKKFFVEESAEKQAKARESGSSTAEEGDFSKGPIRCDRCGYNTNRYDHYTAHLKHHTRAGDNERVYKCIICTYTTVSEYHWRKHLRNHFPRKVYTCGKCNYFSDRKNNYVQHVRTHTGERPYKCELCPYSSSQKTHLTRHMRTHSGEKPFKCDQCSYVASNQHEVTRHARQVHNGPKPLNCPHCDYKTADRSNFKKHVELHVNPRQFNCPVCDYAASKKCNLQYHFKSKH

[2] = target: T1, HisMBP-REST/DBD; experiment: competition; 10 mM Tris-HCl pH 8.0, 100 mM KCl, 50 uM ZnCl2 (printed '50 M ZnCl', symbols lost), 2 mM 2-mercaptoethanol, 10% glycerol, 0.1% NP-40, 0.1 mg/ml BSA; 0.5 nM probe, 150 nM competitor, 40 nM protein, 1 h; temperature lost in text; settings: protein: recombinant; tags: His-MBP

Row | Binder | binding result [1] | binding result [2]
1 | B1 | binds | –
2 | B2 | – | no binding
